Experimental findings from paper PMC10343505 (Molecules, 2023) are described below.

The nature of data set [1]: Water solubility of synthesized compounds. It counts as physicochemical. The settings on record: concentration of 1 mg/mL in pure water. The protocol: The Hecate N-terminal fragments found in the serum stability experiment were selected to conjugate with gallic acid, like that in the GA-Hecate structure, where GA is coupled at the N-terminal region. Bioconjugates were synthesized using solid-phase methods and, after purification, their purity and identities were determined by high-performance liquid chromatography and mass spectrometry, respectively (see Supplementary Information). GA-metabolite 6 was not water-soluble and therefore was not considered for further biological evaluation.

The subject of data set [2] is Vero cells. Nature of the data set: Cytotoxicity profile, WST-1 viability assay. In kind it is cell-based, African green monkey. The settings on record: 72 h; for CC50 (50% cytotoxic concentration in VERO cells): WST-1, non-linear regression of dose-response curve; for maximum non-toxic concentration: arbitrary threshold of 80% cell viability, range 80-0.62 µM. The protocol: To understand the effect of GA-Hecate and N-terminal-GA-metabolites on host cells, we tested them at a range of concentrations (80–0.62 µM) on Vero cells. Considering the arbitrary threshold of 80% cell viability, GA-Hecate, and GA-metabolite 5 reached their maximum non-toxic concentration at 40 µM (Figure 2).
Figure 2 Compound effects on Vero cells. Vero cells were incubated with different concentrations of GA-peptides. At 72 h post treatment, cell viability was determined by WST viability assay and the values are plotted as those relative to the control. Bars represent triplicate samples of three independent assays. *** p < 0.001. Comparison control vs. concentration. Water, the GA-peptide vehicle, was used as a negative control. Red dotted lines represent the arbitrary threshold of 80% cell viability.
The cytotoxicity profile of GA-Hecate and GA-metabolites. Peptide cytotoxicity profiles were measured using the WST-1 (4-[3-(4-iodophenyl)-2-(4-nitrophenyl)-2H-5-tetrazolio]-3-benzene disulfonate) cell proliferation reagent. A total of 24 h before treatment, 7 × 10^3 Vero cells/well were cultured with supplemented DMEM in a 96-multi-well plate and incubated at 37 °C in a humidified 5% CO2 incubator. The next day, the peptide-containing medium was added at the following final concentrations: 80; 40; 20; 10; 5; 2.5; 1.25, and 0.625 µM. After 72 h of incubation, peptide medium was removed, and WST-1 at a dilution of 1:10 was added to the wells and incubated for 30 min. Absorbance was measured at 450 nm, using a plate reader spectrophotometer.
On the technique in general: Formazan colour is commonly taken as a measure of viable cells.

Another data set is described as follows: fresh human serum. The settings on record: 37 °C, up to 20 min.
Data set [3] relates to Vero cells. Nature of the data set: Cell toxicity during constant treatment (cell count, WST-1). In kind it is cell-based, African green monkey. The following applies: 20 µM for 3 and 7 days. Here is the method:
We next assessed the effect, if any, of our peptides on cell growth, which in turn could affect virus replication. Vero cells in culture flasks were propagated in the presence or absence of 20 µM each of GA-peptides for 3 and 7 days. At this time point, viable cells were counted following incubation with trypsin using the automated cell counter Scepter^TM (Millipore), and cell shape was monitored using phase-contrast microscopy. Then, 7 × 10^3 cells were seeded per well of a 96-well plate, incubated for 24 h, and cell viability was measured using the WST-1 viability reagent (Figure 9c,d). […] This was consistent with the lower cell viability found for GA-Hecate-treated cells (65% of the control, Figure 9c).
Figure 9 Effect of peptides on Vero. (a) Cells were treated with 20 µM each of the peptides and cell counts determined at 3 and 7 days (a) during or (b) after treatment, as described in the text. (c,d) depict the cell viability counts from (a,b), respectively, shown as plots. Bars represent triplicate samples of three independent assays. *** p < 0.001. […]
GA-Hecate and GA-metabolite cell toxicity during constant treatment. […] Absorbance was measured at 450 nm, using a plate reader spectrophotometer. […] Cell images were obtained using a confocal microscope and the number of cells/mL was automatically measured using the automated cell counter Scepter^TM (Millipore). […]

The subject of the next data set is ZIKV strain MP1751. Nature of the data set: Virucidal assay, micro-neutralization. It counts as cell-based, Zika virus. The settings on record: virus pre-incubated 1 h, 72 hpi, Vero. The protocol:
We next tested the virucidal effect of GA-Hecate and GA-metabolite 5 at concentrations of 20 µM and 40 µM on ZIKV strain MP1751 as described above. Again, we found a modest effect of GA-Hecate at 40 µM on ZIKV strain MP1751 replication. […] Given the latter result, the combination was not tested.
Sandwich ELISA to assess ZIKV infectivity (micro-neutralization). This assay was performed as described previously by Lopez-Chamaco et al., 2018. Briefly, at 72 h post-treatment (h.p.i.) the infected cell medium was removed, and cells were washed with PBS and then lysed with lysis buffer (20 mM Tris-HCl (pH 7.4), 20 mM iodoacetamide, 150 mM NaCl, 1 mM EDTA, and 0.5% Triton X-100) containing protease inhibitors. The lysis solution was transferred to an Immunolon® plate pre-coated with 3 µg/mL of purified pan-flavivirus MAb D1-4G2-4-15 (ATCC® HB112TM, herein referred to as 4G2) in PBS and incubated at room temperature for 1 h. […] After washing with PBST, 100 µL of TMB solution (Life Technologies) was added and the reaction stopped at 30 min with 50 µL of 0.5 M H2SO4 solution added and read at 450 nm using a plate reader spectrophotometer (ELISA).
Entry step assessment of GA-Hecate and GA-metabolites on Zika Virus. […] The levels of virus replication were determined using micro-neutralization as described above. […]

Data set [4] can be described thus: Serum stability, mass spectrometry. The settings on record: 100 µL of 1 mg/mL peptide + 100 µL fresh human serum, 37 °C, 20 min, ethanol precipitation, ESI mass spectrometry. It counts as in vitro ADME. Here is the method: The GA-Hecate peptide has shown promising efficacy in antiviral assays, but its stability and target selectivity are yet to be determined. An understanding of these properties is crucial for the future progression of the peptide for therapeutic end use. To evaluate its stability, the Hecate peptide was incubated in freshly prepared human blood serum at 37 °C for 20 min. Mass spectrometry was then employed to identify breakdown products (metabolites) (Supplementary Figure S1).
Serum stability. A total of 100 µL of a solution containing 1 mg/mL of Hecate peptide was incubated at 37 °C with 100 µL of fresh human serum for 20 min. Then, 200 µL of 96% ethanol solution in water was added to the mixture, which was centrifuged, and the supernatant was analysed by mass spectrometry as described below. Water was used as a negative control for samples without serum (Supplementary Figure S1).
Mass spectrometry. Compound solutions were analysed by mass spectrometry using a Bruker spectrometer in electrospray positive mode with direct injection. Spectra were analysed with the help of Spectra Analysis Software using the relationship between molecular weight (m) and charge (z) (m/z). Fragments of Hecate were identified, and the amino acid sequence was determined by m/z comparison.

Where a SMILES comes first, the peptide text is derived from it. The star is where a group is joined. Galloyl = O=C(c1cc(O)c(O)c(O)c1)* Some results are limits rather than exact numbers.

Turning to `CC(C)C[C@H](NC(=O)[C@H](C)NC(=O)[C@H](CCCCN)NC(=O)[C@H](CCCCN)NC(=O)[C@H](CC(C)C)NC(=O)[C@H](C)NC(=O)[C@H](CCCCN)NC(=O)[C@H](CC(C)C)NC(=O)[C@H](C)NC(=O)[C@H](CC(C)C)NC(=O)[C@H](C)NC(=O)[C@H](Cc1ccccc1)NC(=O)c1cc(O)c(O)c(O)c1)C(=O)O` [GA-Metabolite 7] (Galloyl-FALALKALKKAL-OH), the “Water Solubility” value in data set [1] is given as “Soluble”. In the data set on Vero cells [2], the “CC50 (50% cytotoxic concentration in VERO cells)” value was above 80.0 µM. Also, the cytotoxic effect entry with Vero cells [2] (Vero cells, WST, all tested concentrations 80-0.62 µM) is “did not show any cytotoxic effect”.

On to H3^+N-FALALKALKKALKKLKKALKKAL-CONH2, for which the cleaved bond entry in the data set “fresh human serum” is “L-K, major, 20 min”.

On to `CC(C)C[C@H](NC(=O)[C@H](CCCCN)NC(=O)[C@H](CCCCN)NC(=O)[C@H](CC(C)C)NC(=O)[C@H](C)NC(=O)[C@H](CCCCN)NC(=O)[C@H](CCCCN)NC(=O)[C@H](CC(C)C)NC(=O)[C@H](C)NC(=O)[C@H](CCCCN)NC(=O)[C@H](CC(C)C)NC(=O)[C@H](C)NC(=O)[C@H](CC(C)C)NC(=O)[C@H](C)NC(=O)[C@H](Cc1ccccc1)NC(=O)c1cc(O)c(O)c(O)c1)C(=O)O` [GA-Metabolite 5] (Galloyl-FALALKALKKALKKL-OH), for which the cell viability entry in the data set on Vero cells [3] is given as “did not have any effect on cell viability or cell shape”. Besides, the “Water Solubility” value in data set [1] was “Soluble”. In addition, the “CC50 (50% cytotoxic concentration in VERO cells)” value with Vero cells [2] is listed as above 70.0 µM. In the data set on Vero cells [2] (Vero cells, WST), the maximum non-toxic concentration came out at 40 µM. Moreover, the virucidal inhibition in the data set on ZIKV strain MP1751 (20 µM) and in the data set on ZIKV strain MP1751 (40 µM) was 98.5% each time.

As for `CC(C)C[C@H](NC(=O)[C@H](C)NC(=O)[C@H](CCCCN)NC(=O)[C@H](CCCCN)NC(=O)[C@H](CC(C)C)NC(=O)[C@H](C)NC(=O)[C@H](CCCCN)NC(=O)[C@H](CCCCN)NC(=O)[C@H](CC(C)C)NC(=O)[C@H](CCCCN)NC(=O)[C@H](CCCCN)NC(=O)[C@H](CC(C)C)NC(=O)[C@H](C)NC(=O)[C@H](CCCCN)NC(=O)[C@H](CCCCN)NC(=O)[C@H](CC(C)C)NC(=O)[C@H](C)NC(=O)[C@H](CCCCN)NC(=O)[C@H](CC(C)C)NC(=O)[C@H](C)NC(=O)[C@H](CC(C)C)NC(=O)[C@H](C)NC(=O)[C@H](Cc1ccccc1)NC(=O)c1cc(O)c(O)c(O)c1)C(N)=O` [GA-Hecate] (Galloyl-FALALKALKKALKKLKKALKKAL-NH2), in data set [1], the “Water Solubility” value was “Soluble”. Also, the “CC50 (50% cytotoxic concentration in VERO cells)” value in the data set on Vero cells [2] is above 70.0 µM. Also, the maximum non-toxic concentration in the data set with Vero cells [2] (Vero cells, WST) is on record as 40 µM.

As to `CC(C)C[C@H](NC(=O)[C@H](C)NC(=O)[C@H](CCCCN)NC(=O)[C@H](CC(C)C)NC(=O)[C@H](C)NC(=O)[C@H](CC(C)C)NC(=O)[C@H](C)NC(=O)[C@H](Cc1ccccc1)NC(=O)c1cc(O)c(O)c(O)c1)C(=O)O` [GA-Metabolite 6] (Galloyl-FALALKAL-OH), the “Water Solubility” value in data set [1] is listed as “Not soluble”.

In the case of `CC(C)C[C@H](NC(=O)[C@H](C)NC(=O)[C@H](CCCCN)NC(=O)[C@H](CCCCN)NC(=O)[C@H](CC(C)C)NC(=O)[C@H](C)NC(=O)[C@H](CCCCN)NC(=O)[C@H](CCCCN)NC(=O)[C@H](CC(C)C)NC(=O)[C@H](CCCCN)NC(=O)[C@H](CCCCN)NC(=O)[C@H](CC(C)C)NC(=O)[C@H](C)NC(=O)[C@H](CCCCN)NC(=O)[C@H](CCCCN)NC(=O)[C@H](CC(C)C)NC(=O)[C@H](C)NC(=O)[C@H](CCCCN)NC(=O)[C@H](CC(C)C)NC(=O)[C@H](C)NC(=O)[C@H](CC(C)C)NC(=O)[C@H](C)NC(=O)[C@@H](N)Cc1ccccc1)C(N)=O` [Hecate] (H-FALALKALKKALKKLKKALKKAL-NH2), the “stability in human blood serum” value in data set [4] is recorded as “degraded in human blood serum into three major metabolites”.
